Experiment [1] concerns the target α/β TCR/CD3 complex on Jurkat, Clone E6-1 cells (human) (UniProt P07766). Briefly: flow cytometry on Jurkat Clone E6-1 cells, Fab titration 10 µg/ml to 10 ng/ml; EC50 of MFI, fold decrease vs TPP-1374. On the technique in general: A flow cytometer gives signals particle by particle.
Experiment [2] shares this target. In words: flow cytometry on Jurkat Clone E6-1 cells, Fab titration 10 µg/ml to 10 ng/ml; AUC of MFI vs log concentration, gain vs TPP-1374.

This note sets out measurements from patent US20250051445A1.

Sequence of UniProt P07766 (P07766 23-207, chain 1 of 4): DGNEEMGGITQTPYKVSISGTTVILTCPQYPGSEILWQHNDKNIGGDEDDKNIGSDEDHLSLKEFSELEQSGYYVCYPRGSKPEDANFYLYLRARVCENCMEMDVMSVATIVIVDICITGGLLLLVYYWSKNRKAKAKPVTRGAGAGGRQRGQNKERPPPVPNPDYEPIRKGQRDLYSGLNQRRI
Sequence of UniProt P07766 (P09693 23-182, chain 2 of 4, further chain): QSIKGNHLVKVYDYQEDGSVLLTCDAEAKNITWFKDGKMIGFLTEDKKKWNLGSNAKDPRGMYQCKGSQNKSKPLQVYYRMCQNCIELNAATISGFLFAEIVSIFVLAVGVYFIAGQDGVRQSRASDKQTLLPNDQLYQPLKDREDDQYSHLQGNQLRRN
Sequence of UniProt P07766 (P04234 22-171, chain 3 of 4, further chain): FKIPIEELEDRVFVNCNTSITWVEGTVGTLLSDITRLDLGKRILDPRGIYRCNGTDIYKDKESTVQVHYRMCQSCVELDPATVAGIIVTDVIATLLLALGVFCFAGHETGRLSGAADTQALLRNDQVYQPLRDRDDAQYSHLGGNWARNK
Sequence of UniProt P07766 (P20963 22-164, chain 4 of 4, further chain): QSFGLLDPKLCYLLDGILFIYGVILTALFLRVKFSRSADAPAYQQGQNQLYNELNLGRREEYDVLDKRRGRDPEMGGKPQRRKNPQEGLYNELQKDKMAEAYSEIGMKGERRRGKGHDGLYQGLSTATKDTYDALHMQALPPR

B1: TPP-1391 Fab fragment (Fab, V domains shown)
VH: EVQLVQSGAEVKKPGASVKVSCKASGYKFTSYVMHWVRQAPGQGLEWMGYINPYRDVTKYAEKFQGRVTLTSDTSTSTAYMELSSLRSEDTAVYYCARGSYYDYEGFVYWGQGTLVTVSS
VL: QIQMTQSPSSLSASVGDRVTITCSATSSVSYMHWYQQKPGKAPKRWIYDTSKLASGVPSRFSGSGSGTDYTLTISSLQPEDAATYYCQQWSSNPLTFGGGTKVEIKR
Turning to B1, the fold decrease in EC50 in experiment [1] amounted to 4.7 fold. In experiment [2], the % gain in binding AUC was determined as 245%.

B2: TPP-1390 Fab fragment (Fab, V domains shown)
VH: EVQLVQSGAEVKKPGASVKVSCKASGYKFTSYVMHWVRQAPGQGLEWMGYINPRNDVTKYAEKFQGRVTLTSDTSTSTAYMELSSLRSEDTAVYYCARGSYYDYEGFVYWGQGTLVTVSS
VL: QIQMTQSPSSLSASVGDRVTITCSATSSVSYMHWYQQKPGKAPKRWIYDTSKLASGVPSRFSGSGSGTDYTLTISSLQPEDAATYYCQQWSSNPLTFGGGTKVEIKR
As for B2, the fold decrease in EC50 in experiment [1] came out at 5.5 fold. Further, in experiment [2], the % gain in binding AUC is 270%.

B3: TPP-1384 Fab fragment (Fab, V domains shown)
VH: EVQLVQSGAEVKKPGASVKVSCKASGYKFTSYVMHWVRQAPGQGLEWMGYINPYNDVTKYAEKFQGRVTLTSDTSTSTAYMELSSLRSEDTAVHYCARGSYYDYEGFVYWGQGTLVTVSS
VL: QIQMTQSPSSLSASVGDRVTITCSATSSVSYMHWYQQKPGKAPKRWIYDTSKLAKGVPSRFSGSGSGTDYTLTISSLQPEDAATYYCQQWSSNPLTFGGGTKVEIKR
The molecule B3 registered a fold decrease in EC50 in experiment [1] of 4.1 fold. In experiment [2], the % gain in binding AUC was determined as 203%.

B4: TPP-1363 Fab fragment (Fab, V domains shown)
VH: EVQLVQSGAEVKKPGASVKVSCKASGYKFTSYVMHWVRQAPGQGLEWMGYINPYKDVTKYAEKFQGRVTLTSDTSTSTAYMELSSLRSEDTAVYYCARGSYYDYEGFVYWGQGTLVTVSS
VL: QIQMTQSPSSLSASVGDRVTITCSATSSVSYMHWYQQKPGKAPKRWIYDTSKLASGVPSRFSGSGSGTDYTLTISSLQPEDAATYYCQQWSSNPLTFGGGTKVEIKR
In turn, B4 had a fold decrease in EC50 in experiment [1] of 7.3 fold. Also, the % gain in binding AUC in experiment [2] came out at 380%.

B5: TPP-1379 Fab fragment (Fab, V domains shown)
VH: EVQLVQSGAEVKKPGASVKVSCKASGYKFTSYVMHWVRQAPGQGLEWMGYINPKNDVTKYAEKFQGRVTLTSDTSTSTAYMELSSLRSEDTAVHYCARGSYYDYEGFVYWGQGTLVTVSS
VL: QIQMTQSPSSLSASVGDRVTITCSATSSVSYMHWYQQKPGKAPKRWIYDTSKLASGVPSRFSGSGSGTDYTLTISSLQPEDAATYYCQQWSSNPLTFGGGTKVEIKR
With B5, in experiment [2], the % gain in binding AUC is 1%.

B6: TPP-1381 Fab fragment (Fab, V domains shown)
VH: EVQLVQSGAEVKKPGASVKVSCKASGYKFTSYVMHWVRQAPGQGLEWMGYINPYKDVTKYAEKFQGRVTLTSDTSTSTAYMELSSLRSEDTAVHYCARGSYYDYEGFVYWGQGTLVTVSS
VL: QIQMTQSPSSLSASVGDRVTITCSATSSVSYMHWYQQKPGKAPKRWIYDTSKLASGVPSRFSGSGSGTDYTLTISSLQPEDAATYYCQQWSSNPLTFGGGTKVEIKR
B6 gave a fold decrease in EC50 in experiment [1] of 8.2 fold. In experiment [2], the % gain in binding AUC turned out to be 98%.

B7: TPP-1389 Fab fragment (Fab, V domains shown)
VH: EVQLVQSGAEVKKPGASVKVSCKASGYKFTRYVMHWVRQAPGQGLEWMGYINPYNDVTKYAEKFQGRVTLTSDTSTSTAYMELSSLRSEDTAVYYCARGSYYDYEGFVYWGQGTLVTVSS
VL: QIQMTQSPSSLSASVGDRVTITCSATSSVSYMHWYQQKPGKAPKRWIYDTSKLARGVPSRFSGSGSGTDYTLTISSLQPEDAATYYCQQWSSNPLTFGGGTKVEIKR
For B7, in experiment [1], the fold decrease in EC50 turned out to be 31.8 fold. In experiment [2], the % gain in binding AUC turned out to be 423%.

B8: TPP-1383 Fab fragment (Fab, V domains shown)
VH: EVQLVQSGAEVKKPGASVKVSCKASGYKFTSYVMHWVRQAPGQGLEWMGYINPYNDVTKYAEKFQGRVTLTSDTSTSTAYMELSSLRSEDTAVHYCARGSYYDYEGFVYWGQGTLVTVSS
VL: QIQMTQSPSSLSASVGDRVTITCSATSSVKYMHWYQQKPGKAPKRWIYDTSKLASGVPSRFSGSGSGTDYTLTISSLQPEDAATYYCQQWSSNPLTFGGGTKVEIKR
For the molecule B8, the % gain in binding AUC in experiment [2] is -73%.

B9: TPP-1388 Fab fragment (Fab, V domains shown)
VH: EVQLVQSGAEVKKPGASVKVSCKASGYKFTRYVMHWVRQAPGQGLEWMGYINPYNDVTKYAEKFQGRVTLTSDTSTSTAYMELSSLRSEDTAVYYCARGSYYDYEGFVYWGQGTLVTVSS
VL: QIQMTQSPSSLSASVGDRVTITCSATSSVSYMHWYQQKPGKAPKRWIYDTSKLASGVPSRFSGSGSGTDYTLTISSLQPEDAATYYCQQWSSNPLTFGGGTKVEIKR
For B9, in experiment [1], the fold decrease in EC50 is 8.1 fold. In experiment [2], the % gain in binding AUC was 273%.

B10: TPP-1382 Fab fragment (Fab, V domains shown)
VH: EVQLVQSGAEVKKPGASVKVSCKASGYKFTSYVMHWVRQAPGQGLEWMGYINPYNDVTKYAEKFQGRVTLTSDTSTSTAYMELSSLRSEDTAVHYCARGSYYDYEGFVYWGQGTLVTVSS
VL: QIQMTQSPSSLSASVGDRVTITCSATSSVRYMHWYQQKPGKAPKRWIYDTSKLASGVPSRFSGSGSGTDYTLTISSLQPEDAATYYCQQWSSNPLTFGGGTKVEIKR
With B10, the % gain in binding AUC in experiment [2] is -66%.

B11: TPP-1360 Fab fragment (Fab, V domains shown)
VH: EVQLVQSGAEVKKPGASVKVSCKASGYKFTRYVMHWVRQAPGQGLEWMGYINPYNDVTKYAEKFQGRVTLTSDTSTSTAYMELSSLRSEDTAVHYCARGSYYDYEGFVYWGQGTLVTVSS
VL: QIQMTQSPSSLSASVGDRVTITCSATSSVSYMHWYQQKPGKAPKRWIYDTSKLASGVPSRFSGSGSGTDYTLTISSLQPEDAATYYCQQWSSNPLTFGGGTKVEIKR
B11 returned a fold decrease in EC50 in experiment [1] of 5.7 fold. Besides, the % gain in binding AUC in experiment [2] stood at 144%.

B12: TPP-1387 Fab fragment (Fab, V domains shown)
VH: EVQLVQSGAEVKKPGASVKVSCKASGYKFTSYVMHWVRQAPGQGLEWMGYINPYNDVTKYAEKFQGRVTLTSDTSTSTAYMELSSLRSEDTAVYYCARGSYYDYEGFVYWGQGTLVTVSS
VL: QIQMTQSPSSLSASVGDRVTITCSATSSVSYMHWYQQKPGKAPKRWIYDTSKLASGVPSRFSGSGSGTDYTLTISSLQPEDAATYYCQQWSSNPLTFGGGTKVEIKR
As for B12, the fold decrease in EC50 in experiment [1] came out at 3.2 fold. Besides, in experiment [2], the % gain in binding AUC stood at 14%.

B13: TPP-1392 Fab fragment (Fab, V domains shown)
VH: EVQLVQSGAEVKKPGASVKVSCKASGYKFTSYVMHWVRQAPGQGLEWMGYINPRNDVTKYAEKFQGRVTLTSDTSTSTAYMELSSLRSEDTAVYYCARGSYYDYEGFVYWGQGTLVTVSS
VL: QIQMTQSPSSLSASVGDRVTITCSATSSVSYMHWYQQKPGKAPKRWIYDTSKLARGVPSRFSGSGSGTDYTLTISSLQPEDAATYYCQQWSSNPLTFGGGTKVEIKR
B13 returned a fold decrease in EC50 in experiment [1] of 16.6 fold. Further, the % gain in binding AUC in experiment [2] was 813%.

B14: TPP-1378 Fab fragment (Fab, V domains shown)
VH: EVQLVQSGAEVKKPGASVKVSCKASGYKFTSYVMHWVRQAPGQGLEWMGYINPRNDVTKYAEKFQGRVTLTSDTSTSTAYMELSSLRSEDTAVHYCARGSYYDYEGFVYWGQGTLVTVSS
VL: QIQMTQSPSSLSASVGDRVTITCSATSSVSYMHWYQQKPGKAPKRWIYDTSKLASGVPSRFSGSGSGTDYTLTISSLQPEDAATYYCQQWSSNPLTFGGGTKVEIKR
B14: in experiment [2], the % gain in binding AUC is 79%.

B15: TPP-1393 Fab fragment (Fab, V domains shown)
VH: EVQLVQSGAEVKKPGASVKVSCKASGYKFTSYVMHWVRQAPGQGLEWMGYINPYNDVTKYAEKFQGRVTLTSDTSTSTAYMELSSLRSEDTAVYYCARGSYYDYEGFVYWGQGTLVTVSS
VL: QIQMTQSPSSLSASVGDRVTITCSATSSVSYMHWYQQKPGKAPKRWIYDTSKLARGVPSRFSGSGSGTDYTLTISSLQPEDAATYYCQQWSSNPLTFGGGTKVEIKR
The molecule B15 registered a fold decrease in EC50 in experiment [1] of 13.9 fold. Besides, the % gain in binding AUC in experiment [2] stood at 226%.

B16: TPP-1380 Fab fragment (Fab, V domains shown)
VH: EVQLVQSGAEVKKPGASVKVSCKASGYKFTSYVMHWVRQAPGQGLEWMGYINPYRDVTKYAEKFQGRVTLTSDTSTSTAYMELSSLRSEDTAVHYCARGSYYDYEGFVYWGQGTLVTVSS
VL: QIQMTQSPSSLSASVGDRVTITCSATSSVSYMHWYQQKPGKAPKRWIYDTSKLASGVPSRFSGSGSGTDYTLTISSLQPEDAATYYCQQWSSNPLTFGGGTKVEIKR
In turn, B16 displayed a fold decrease in EC50 in experiment [1] of 2.9 fold. Also, the % gain in binding AUC in experiment [2] was determined as 18%.

B17: TPP-1372 Fab fragment (Fab, V domains shown)
VH: EVQLVQSGAEVKKPGASVKVSCKASGYKFTSYVMHWVRQAPGQGLEWMGYINPYKDVTKYAEKFQGRVTLTSDTSTSTAYMELSSLRSEDTAVYYCARGSYYDYEGFVYWGQGTLVTVSS
VL: QIQMTQSPSSLSASVGDRVTITCSATSSVSYMHWYQQKPGKAPKRWIYDTSKLARGVPSRFSGSGSGTDYTLTISSLQPEDAATYYCQQWSSNPLTFGGGTKVEIKR
In turn, B17 had a fold decrease in EC50 in experiment [1] of 21.5 fold. Moreover, the % gain in binding AUC in experiment [2] was found to be 246%.

B18: TPP-1367 Fab fragment (Fab, V domains shown)
VH: EVQLVQSGAEVKKPGASVKVSCKASGYKFTSYVMHWVRQAPGQGLEWMGYINPYNDVTKYAEKFQGRVTLTSDTSTSTAYMELSSLRSEDTAVHYCARGSYYDYEGFVYWGQGTLVTVSS
VL: QIQMTQSPSSLSASVGDRVTITCSATSSVSYMHWYQQKPGKAPKRWIYDTSKLARGVPSRFSGSGSGTDYTLTISSLQPEDAATYYCQQWSSNPLTFGGGTKVEIKR
On to B18, for which the fold decrease in EC50 in experiment [1] worked out at 8.8 fold. Moreover, the % gain in binding AUC in experiment [2] came out at 220%.

B19: TPP-1377 Fab fragment (Fab, V domains shown)
VH: EVQLVQSGAEVKKPGASVKVSCKASGYKFTKYVMHWVRQAPGQGLEWMGYINPYNDVTKYAEKFQGRVTLTSDTSTSTAYMELSSLRSEDTAVHYCARGSYYDYEGFVYWGQGTLVTVSS
VL: QIQMTQSPSSLSASVGDRVTITCSATSSVSYMHWYQQKPGKAPKRWIYDTSKLASGVPSRFSGSGSGTDYTLTISSLQPEDAATYYCQQWSSNPLTFGGGTKVEIKR
As for B19, the fold decrease in EC50 in experiment [1] was 4.1 fold. Further, the % gain in binding AUC in experiment [2] came out at 56%.
